{
  "source": "patent US20230416396A1",
  "about": "(Regeneron, published 2023)",
  "binders": {"B1": {"name": "REGN7647 (bispecific antibody, human IgG4 S228P, kappa)", "heavy 1": "EVQLVESGGGLVQPGRSLRLSCGASGFTFDDYVMHWVRQIPGKGLEWVAGISWNSGSIGYADSVKGRFTISRDNAKNSLYLQMNSLRAEDTALYFCAKDHIDPYSSSLYYYYGMDVWGQGTTVTVSSASTKGPSVFPLAPCSRSTSESTAALGCLVKDYFPEPVTVSWNSGALTSGVHTFPAVLQSSGLYSLSSVVTVPSSSLGTKTYTCNVDHKPSNTKVDKRVESKYGPPGGGGSGGGGSGGGGSEVQLVESGGGLVQPGRSLRLSCGASGFTFDDYVMHWVRQIPGKGLEWVAGISWNSGSIGYADSVKGRFTISRDNAKNSLYLQMNSLRAEDTALYFCAKDHIDPYSSSLYYYYGMDVWGQGTTVTVSSASTKGPSVFPLAPCSRSTSESTAALGCLVKDYFPEPVTVSWNSGALTSGVHTFPAVLQSSGLYSLSSVVTVPSSSLGTKTYTCNVDHKPSNTKVDKRVESKYGPPCPPCPAPPVAGPSVFLFPPKPKDTLMISRTPEVTCVVVDVSQEDPEVQFNWYVDGVEVHNAKTKPREEQFNSTYRVVSVLTVLHQDWLNGKEYKCKVSNKGLPSSIEKTISKAKGQPREPQVYTLPPSQEEMTKNQVSLTCLVKGFYPSDIAVEWESNGQPENNYKTTPPVLDSDGSFFLYSRLTVDKSRWQEGNVFSCSVMHEALHNRFTQKSLSLSPGK", "heavy 2": "EVQLVESGGGLVQPGRSLRLSCAASGFTFDDYAMHWVRQAPGKGLEWVSGISWKSDNIGYADSVKGRFTISRDNAKNSLYLQMNSLRAEDTALYYCAKALGGWKFDYYYGMDVWGQGTTVTVSSASTKGPSVFPLAPCSRSTSESTAALGCLVKDYFPEPVTVSWNSGALTSGVHTFPAVLQSSGLYSLSSVVTVPSSSLGTKTYTCNVDHKPSNTKVDKRVESKYGPPCPPCPAPPVAGPSVFLFPPKPKDTLMISRTPEVTCVVVDVSQEDPEVQFNWYVDGVEVHNAKTKPREEQFNSTYRVVSVLTVLHQDWLNGKEYKCKVSNKGLPSSIEKTISKAKGQPREPQVYTLPPSQEEMTKNQVSLTCLVKGFYPSDIAVEWESNGQPENNYKTTPPVLDSDGSFFLYSRLTVDKSRWQEGNVFSCSVMHEALHNHYTQKSLSLSLGK", "light": "not shown", "notes": "1+2 format, hIgG4P-PVA; The linker between the two 4-1BB Fabs is (G4S)3v15; also called CD38x4-1BB (1 + 2), (G4S)3v15; 26812P2 x 35333P2 (IN) + 35333P2 (OUT)"}},
  "key": {"[1]": {"target": "T1, human 4-1BB expressed with a C-terminal murine Fc tag (human, UniProt Q07011 24-186)", "T1 construct": "also called h4-1BB.mFc; REGN3585; not shown: C-terminal murine Fc tag", "T1 sequence (Q07011 24-186 limits assumed)": "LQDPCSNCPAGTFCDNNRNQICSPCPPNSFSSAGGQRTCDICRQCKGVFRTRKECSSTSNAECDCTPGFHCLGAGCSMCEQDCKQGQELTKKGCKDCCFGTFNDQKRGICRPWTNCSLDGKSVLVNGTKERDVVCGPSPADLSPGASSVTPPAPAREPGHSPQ", "assay": "SPR Biacore 8k, antibody captured by anti-human Fc, h4-1BB.mFc as analyte, 25 C", "description": "Equilibrium dissociation constants (KD values) for human 4-1BB expressed with a C-terminal myc-myc-hexahistidine tag (h4-1BB.mmH, REGN3584) or human 4-1BB expressed with a C-terminal murine Fc tag (h4-1BB.mFc, REGN3585) binding to purified anti-CD38×4-1BB 1+2 antibodies were determined using a real-time surface plasmon resonance biosensor using a Biacore 8k instrument. The CM5 Biacore sensor surface was derivatized by amine coupling with a monoclonal mouse anti-human Fc antibody (REGN2567). All Biacore binding studies were performed in a buffer composed of 0.01M HEPES pH 7.4, 0.15M NaCl, 3 mM EDTA, 0.05% v/v Surfactant P20 (HBS-EP running buffer). […] Antibody-reagent association was monitored for 5 minutes while dissociation in HBS-EP running buffer was monitored for 10 minutes. At the end of each cycle, the anti-CD38×4-1BB 1+2 antibody capture surface was regenerated using a 10 second injection of 20 mM phosphoric acid. All binding kinetics experiments were performed at 25° C.\nKinetic association (kₐ) and dissociation (kd) rate constants were determined by fitting the real-time sensorgrams to a 1:1 binding model using Cytiva Insight curve fitting software. Binding dissociation equilibrium constants (KD) and dissociative half-lives (t/2) were calculated from the kinetic rate constants as: […]"}, "[2]": {"target": "T2, human 4-1BB on cells (human, UniProt Q07011 24-255)", "T2 sequence (Q07011 24-255)": "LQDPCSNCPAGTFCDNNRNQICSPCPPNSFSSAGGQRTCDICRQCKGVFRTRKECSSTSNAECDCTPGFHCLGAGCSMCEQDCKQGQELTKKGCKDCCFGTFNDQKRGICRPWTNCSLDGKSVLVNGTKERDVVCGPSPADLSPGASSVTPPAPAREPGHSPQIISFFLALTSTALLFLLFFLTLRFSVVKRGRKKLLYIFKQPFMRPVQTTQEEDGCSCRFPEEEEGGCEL", "assay": "cell-based or functional assay"}, "[3]": {"target": "T2, human 4-1BB on cells", "assay": "flow cytometry on HEK293/h4-1BB cells, APC anti-human secondary", "description": "The ability of the multispecific antigen binding molecules to bind cells was assessed using flow cytometry. Cell lines were chosen to determine the ability of both the anti-CD38 and anti-4-1BB arms to bind their targets. […] Binding was detected by using a labeled secondary antibody and measuring fluorescence on a flow cytometer.\nHEK293 and HEK293/4-1BB cells were lifted with trypsin, washed and resuspended in stain buffer (2% FBS in PBS) and added to wells of a 96 well V-bottom plate (3×10⁵ cells/well). A 1:5, 9-point, dose titration of test antibodies was diluted in stain buffer and added to cells to a final concentration ranging from 1.3 pM to 100 nM (a “no antibody” control was included as the ninth point ([…]) labeled as “secondary only”). Cells and antibodies were incubated for 30 min on ice and then washed in stain buffer. Cells were resuspended in 2 ug/ml allophycocyanin (APC) conjugated goat-anti human secondary antibody and incubated for 30 min on ice. Cells were then washed and resuspended in viability dye (according to the manufacturer's protocol) and incubated for 30 min on ice. Cells were then washed with stain buffer and resuspended in 2% PFA for 30 min on ice. After washing, cells were filtered and analyzed by flow cytometry to determine the geometric mean fluorescence intensity (gMFI), which was subsequently plotted using GraphPad Prism software. EC₅₀ values of the antibodies were determined from a 4-parameter logistic equation over a 9-point dose response curve (including secondary only control)."}, "[4]": {"target": "T2, human 4-1BB on cells", "assay": "cell-based or functional assay", "remark": "listed apart in the source"}},
  "data": [
    {"binder": "B1", "values": [
      {"measurement": "100 nM h4-1BB.mFc Bind (RU)", "setting": "[1]", "result": 224, "unit": "RU"},
      {"measurement": "Kd", "setting": "[1]", "result": 1.18, "unit": "nM"},
      {"measurement": "koff", "setting": "[1]", "result": 0.000231, "unit": "s⁻¹"},
      {"measurement": "kon", "setting": "[1]", "result": 195000, "unit": "M⁻¹ s⁻¹"},
      {"measurement": "t½", "setting": "[1]", "result": 50, "unit": "min"},
      {"measurement": "EC50 of IL-2 release, T cells + HEK293/CD20/CD38 + REGN1979", "setting": "[2]", "result": 0.0058, "unit": "nM"},
      {"measurement": "EC50 of IL-2 release, T cells + MOLP-8 + IsoC", "setting": "[2]", "result": 0.00221, "unit": "nM"},
      {"measurement": "EC50 of IL-2 release, T cells + MOLP-8 + REGN5458", "setting": "[2]", "result": 0.0231, "unit": "nM"},
      {"measurement": "MAX IL-2 release, T cells + HEK293/CD20 + REGN1979", "setting": "[2]", "result": 199, "unit": "pg/mL"},
      {"measurement": "MAX IL-2 release, T cells + HEK293/CD20/CD38 + IsoC", "setting": "[2]", "result": 18, "unit": "pg/mL"},
      {"measurement": "MAX IL-2 release, T cells + HEK293/CD20/CD38 + REGN1979", "setting": "[2]", "result": 2850, "unit": "pg/mL"},
      {"measurement": "MAX IL-2 release, T cells + MOLP-8 + IsoC", "setting": "[2]", "result": 331, "unit": "pg/mL"},
      {"measurement": "MAX IL-2 release, T cells + MOLP-8 + REGN5458", "setting": "[2]", "result": 692, "unit": "pg/mL"},
      {"measurement": "EC50", "setting": "[3]", "result": 0.608, "unit": "nM"},
      {"measurement": "MAX gMFI", "setting": "[3]", "result": "1.4e+06", "unit": "gMFI"},
      {"measurement": "EC50 of luciferase activity, HEK293/NFkB-Luc/h4-1BB reporter + OPM2", "setting": "[4]", "result": 0.00735, "unit": "nM"},
      {"measurement": "MAX luciferase activity, HEK293/NFkB-Luc/h4-1BB reporter + HEK293/CD20", "setting": "[4]", "result": "1.2e+06", "unit": "RLU"},
      {"measurement": "MAX luciferase activity, HEK293/NFkB-Luc/h4-1BB reporter + HEK293/CD20/CD38", "setting": "[4]", "result": "2.4e+06", "unit": "RLU"},
      {"measurement": "MAX luciferase activity, HEK293/NFkB-Luc/h4-1BB reporter + MOLP-8", "setting": "[4]", "result": "2.3e+06", "unit": "RLU"},
      {"measurement": "MAX luciferase activity, HEK293/NFkB-Luc/h4-1BB reporter + OPM2", "setting": "[4]", "result": "1.9e+06", "unit": "RLU"}
    ]}
  ]
}
